Fold decrease of affinity against wild type, Ka and Kd data for three substances are collected here from publication PMC10040874.

In experiment [1] the target is Drosophila melanogaster CNNM CBS-pair domain, GST-tagged (D. melanogaster). Kind of experiment: ITC; VP-ITC, 20 °C, 20 mM Hepes pH 7.5, 100 mM NaCl, 5 mM TCEP; GST-CBS-pairs titrated with PRL; single site-binding model. (ITC needs no label: the signal is the heat of the interaction.)
The target in experiment [2] is Naegleria fowleri CNNM CBS-pair domain (N. fowleri). Kind of experiment: ITC. The following applies: enzyme.

Chain of Drosophila melanogaster CNNM CBS-pair domain, GST-tagged (D. melanogaster) (A0A0B7P9G0 362-515): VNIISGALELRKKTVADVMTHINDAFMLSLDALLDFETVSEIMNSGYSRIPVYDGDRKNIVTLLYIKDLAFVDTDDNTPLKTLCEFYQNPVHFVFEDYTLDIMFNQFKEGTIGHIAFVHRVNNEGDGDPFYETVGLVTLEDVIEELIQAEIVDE

“Drosophila melanogaster PRL C109D (from UniProt O61722 1-176)”: the fold decrease of affinity against wild type in experiment [1] is below 2 fold.

In experiment [1], “Drosophila melanogaster PRL R143E (from UniProt O61722 1-176) (enzyme)” registered a fold decrease of affinity against wild type of 20 fold. One may read the Kd as a measure of binding affinity in units of concentration. Higher therefore signals lower affinity. As to Naegleria fowleri PRL, in experiment [2], the Ka is 688000 M⁻¹ and the Kd turned out to be 1.5 µM.
